Assay results taken from article PMC11066842, “Formation of Calprotectin Inhibits Amyloid Aggregation of S100A8 and S100A9 Proteins” (ACS Chemical Neuroscience, 2024).

B1: S100A9 (calgranulin B) (natural protein)
chain: TCKMSQLERNIETIINTFHQYSVKLGHPDTLNQGEFKELVRKDLQNFLKKENKNEKVIEHIMEDLDTNADKQLSFEEFIMLMARLTWASHEKMHEGDEGPGHHHKPGLGEGTP
notes: S100A9 (calgranulin B); construct His6-SUMO-S100A9 in pET28a, tag removed by SENP1; also called S100A9 subunit of calprotectin (CP); source: E. coli BL21(DE3), purified (Ni2+ Sepharose, SENP1 cleavage of His6-SUMO, second Ni2+ column, Superdex 75 SEC); not shown: His6, N-terminal, cleaved; SUMO, N-terminal, cleaved

How the values were obtained:
[1] = molecular target: the molecule itself; experiment: dynamic light scattering; 100 uM S100A8, 100 uM S100A9, 50 uM CP; 50 mM HEPES pH 7.4; 8 °C; hydrodynamic radius compared with published radii of S100 dimers
S100A9 (calgranulin B) = molecular target: B1; experiment: SEC; Tricorn 10/300 column with Superdex 75 prep grade, 50 mM HEPES pH 7.4, 1 mM EDTA, 1 mM TCEP, no calcium; CP formed from an equimolar mix of S100A8 and S100A9 by acid denaturation (pH 2.0-2.5), stepwise dialysis and anion exchange; conditions: both partners purified

Binder	binding result [1]	binding result (S100A9 (calgranulin B))
B1	binds	–
S100A8 (calgranulin A) (natural protein, S100A8 (calgranulin A); construct His6-SUMO-S100A8 in pET28a, tag removed by SENP1; also called S100A8 subunit of calprotectin (CP); source: E. coli BL21(DE3), purified (Ni2+ Sepharose, SENP1 cleavage of His6-SUMO, second Ni2+ column, Superdex 75 SEC); not shown: His6, N-terminal, cleaved; SUMO, N-terminal, cleaved) MLTELEKALNSIIDVYHKYSLIKGNFHAVYRDDLKKLLETECPQYIRKKGADVWFKELDINTDGAVNFQEFLILVIKMGVAAHKKSHEESHKE	binds	binds
